Source: IntAct's records for PubMed 11779505

B1: Mothers against decapentaplegic homolog 4 (Homo sapiens), Q13485 (parent)
chain: MDNMSITNTPTSNDACLSIVHSLMCHRQGGESETFAKRAIESLVKKLKEKKDELDSLITAITTNGAHPSKCVTIQRTLDGRLQVAGRKGFPHVIYARLWRWPDLHKNELKHVKYCQYAFDLKCDSVCVNPYHYERVVSPGIDLSGLTLQSNAPSSMMVKDEYVHDFEGQPSLSTEGHSIQTIQHPPSNRASTETYSTPALLAPSESNATSTANFPNIPVASTSQPASILGGSHSEGLLQIASGPQPGQQQNGFTGQPATYHHNSTTTWTGSRTAPYTPNLPHHQNGHLQHHPPMPPHPGHYWPVHNELAFQPPISNHPAPEYWCSIAYFEMDVQVGETFKVPSSCPIVTVDGYVDPSGGDRFCLGQLSNVHRTEAIERARLHIGKGVQLECKGEGDVWVRCLSDHAVFVQSYYLDREAGRAPGDAVHKIYPSAYIKVFDLRQCHRQMQQQAATAQAAAAAQAAAVAGNIPGPGSVGGIAPAISLSAAAGIGVDDLRRLCILRMSFVKGWGPDYPRQSIKETPCWIEIHLHRALQLLDEVLHTMPIADPQPLD

Variants of: B1
Conditions: with smad1_human SMAD1, Q15797
Chain of smad1_human SMAD1, Q15797 (Q15797 whole entry): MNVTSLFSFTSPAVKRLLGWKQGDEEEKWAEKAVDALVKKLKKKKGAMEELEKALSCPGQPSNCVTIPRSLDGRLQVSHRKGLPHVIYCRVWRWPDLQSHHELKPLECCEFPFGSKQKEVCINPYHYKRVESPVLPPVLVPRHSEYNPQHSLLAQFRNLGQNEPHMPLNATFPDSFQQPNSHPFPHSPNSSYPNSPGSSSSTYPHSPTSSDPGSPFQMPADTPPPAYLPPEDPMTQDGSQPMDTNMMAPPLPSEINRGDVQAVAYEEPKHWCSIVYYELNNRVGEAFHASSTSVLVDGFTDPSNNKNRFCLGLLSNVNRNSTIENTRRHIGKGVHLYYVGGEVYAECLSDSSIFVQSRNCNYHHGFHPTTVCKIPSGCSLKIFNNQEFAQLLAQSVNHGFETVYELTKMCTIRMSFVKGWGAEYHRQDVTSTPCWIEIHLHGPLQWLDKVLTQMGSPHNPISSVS

effect of a mutation on the interaction	Variant
disrupting interaction strength	K507S
decreasing interaction strength	D537E
decreasing interaction strength	V426S
disrupting interaction strength	R515S
disrupting interaction strength	D351H
